Reference: publication PMC12483278, “The viral BCL2 protein BHRF1 of Epstein–Barr virus promotes AIM2 inflammasome activation to facilitate lytic replication” (PLOS Pathogens, 2025)

Target: T1, GST-AIM2 full-length (UniProt O14862 1-343)
T1 construct: also called GST-AIM2 WT; GST-tagged AIM2; source: HEK293T, transfected, in lysate
T1 sequence (looked up): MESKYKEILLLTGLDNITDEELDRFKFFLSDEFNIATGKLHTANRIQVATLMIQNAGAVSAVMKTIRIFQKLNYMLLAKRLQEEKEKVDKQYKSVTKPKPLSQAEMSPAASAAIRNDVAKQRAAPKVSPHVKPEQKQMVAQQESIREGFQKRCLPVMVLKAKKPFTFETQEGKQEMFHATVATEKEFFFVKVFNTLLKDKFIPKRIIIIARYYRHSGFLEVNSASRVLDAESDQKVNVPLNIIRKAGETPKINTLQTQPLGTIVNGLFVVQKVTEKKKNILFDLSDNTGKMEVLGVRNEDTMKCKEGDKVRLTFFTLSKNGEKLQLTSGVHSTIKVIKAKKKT
Experiment: pull-down; purified GST-AIM2, Flag-ASC-His and GFP-BHRF1-His mixed and incubated in the absence or presence of purified HSV-1 dsDNA overnight at 4 °C; GST-affinity beads, western blotting
Conditions: both partners purified

B1: GFP-BHRF1-His (natural protein)
chain: MAYSTREILLALCIRDSRVHGNGTLHPVLELAARETPLRLSPEDTVVLRYHVLLEEIIERNSETFTETWNRFITHTEHVDLDFNSVFLEIFHRGDPSLGRALAWMAWCMHACRTLCCNQSTPYYVVDLSVRGMLEASEGLDGWIHQQGGWSTLIEDNIPGSRRFSWTLFLAGLTLSLLVICSYLFISRGRH
notes: also called purified BHRF1 protein
binding result: binds
